# B1: biotinylated 19 bp HSE (dsDNA)
# DNA 1: CCAGAAGCTTCCAGAAGCC
# DNA 2: GGCTTCTGGAAGCTTCTGG
# B2: 19 bp HSE (dsDNA)
# DNA 1: CCAGAAGCTTCCAGAAGCC
# DNA 2: GGCTTCTGGAAGCTTCTGG
# Tests used:
# MBP:AtHsfA1a [1] = target: T1, MBP:AtHsfA1a (Arabidopsis thaliana, UniProt P41151 1-495); assay: pull-down; 25 mM HEPES pH 8, 10 mM MgCl2, 20 mM KCl, 0.1 mM EDTA, 1 mM DTT, 100 ng poly(dI-dC), 5% glycerol, 25 C (EMSA 3 h; pull-down in the same buffer, 1 h + 1 h); settings: protein: recombinant; tags: N-terminal His, MBP (pHMTc); chain copies: 3; label: 5' biotin; blunt
# MBP:PsCRN108 [2] = target: T2, MBP:PsCRN108 (Phytophthora sojae, UniProt A0A0M5K865 18-820); assay: as above; settings: protein: recombinant; tags: N-terminal His, MBP (pHMTc); label: 5' biotin; blunt
# T2 sequence: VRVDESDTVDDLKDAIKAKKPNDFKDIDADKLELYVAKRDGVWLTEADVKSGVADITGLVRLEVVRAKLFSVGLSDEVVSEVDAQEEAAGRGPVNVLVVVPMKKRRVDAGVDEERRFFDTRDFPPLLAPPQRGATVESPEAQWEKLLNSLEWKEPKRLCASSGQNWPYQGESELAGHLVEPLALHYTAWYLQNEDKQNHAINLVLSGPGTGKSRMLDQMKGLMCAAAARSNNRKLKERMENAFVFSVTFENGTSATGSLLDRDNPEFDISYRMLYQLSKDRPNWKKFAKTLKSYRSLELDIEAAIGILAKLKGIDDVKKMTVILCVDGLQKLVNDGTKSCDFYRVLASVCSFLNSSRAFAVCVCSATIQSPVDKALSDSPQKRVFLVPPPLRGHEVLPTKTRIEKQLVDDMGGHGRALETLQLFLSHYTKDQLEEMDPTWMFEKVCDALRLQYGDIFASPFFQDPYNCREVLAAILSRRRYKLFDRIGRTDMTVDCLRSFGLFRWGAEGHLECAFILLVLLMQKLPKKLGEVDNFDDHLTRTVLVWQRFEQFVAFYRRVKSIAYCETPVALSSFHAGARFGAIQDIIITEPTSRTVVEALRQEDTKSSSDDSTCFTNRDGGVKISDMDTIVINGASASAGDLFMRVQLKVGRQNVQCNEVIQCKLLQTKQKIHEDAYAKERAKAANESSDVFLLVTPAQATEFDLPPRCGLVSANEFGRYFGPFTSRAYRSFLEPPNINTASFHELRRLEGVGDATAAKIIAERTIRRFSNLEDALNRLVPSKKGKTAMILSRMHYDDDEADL
# GST:PsCRN108 = target: T3, GST:PsCRN108 (Phytophthora sojae, UniProt A0A0M5K865 18-820); assay: as above; settings: protein: recombinant; tags: N-terminal GST (pGEX-4T-2); label: 5' biotin; blunt
# T3 sequence: T2 sequence
# MBP:PsCRN108 [3] = target: T2, MBP:PsCRN108; assay: EMSA; up to 6 uM protein, 5 nM DNA; weaker than AtHsfA1a; complex in wells; competed by unlabeled HSE; 25 mM HEPES pH 8, 10 mM MgCl2, 20 mM KCl, 0.1 mM EDTA, 1 mM DTT, 100 ng poly(dI-dC), 5% glycerol, 25 C (EMSA 3 h; pull-down in the same buffer, 1 h + 1 h); settings: protein: recombinant; tags: N-terminal His, MBP (pHMTc); label: 5' Alex660 (EMSA); blunt
# MBP:AtHsfA1a [4] = target: T1, MBP:AtHsfA1a; assay: EMSA; up to 2 uM protein, 5 nM DNA; complex in wells; competed by unlabeled HSE; 25 mM HEPES pH 8, 10 mM MgCl2, 20 mM KCl, 0.1 mM EDTA, 1 mM DTT, 100 ng poly(dI-dC), 5% glycerol, 25 C (EMSA 3 h; pull-down in the same buffer, 1 h + 1 h); settings: protein: recombinant; tags: N-terminal His, MBP (pHMTc); chain copies: 3; label: 5' Alex660 (EMSA); blunt
# T1 sequence (P41151 whole entry): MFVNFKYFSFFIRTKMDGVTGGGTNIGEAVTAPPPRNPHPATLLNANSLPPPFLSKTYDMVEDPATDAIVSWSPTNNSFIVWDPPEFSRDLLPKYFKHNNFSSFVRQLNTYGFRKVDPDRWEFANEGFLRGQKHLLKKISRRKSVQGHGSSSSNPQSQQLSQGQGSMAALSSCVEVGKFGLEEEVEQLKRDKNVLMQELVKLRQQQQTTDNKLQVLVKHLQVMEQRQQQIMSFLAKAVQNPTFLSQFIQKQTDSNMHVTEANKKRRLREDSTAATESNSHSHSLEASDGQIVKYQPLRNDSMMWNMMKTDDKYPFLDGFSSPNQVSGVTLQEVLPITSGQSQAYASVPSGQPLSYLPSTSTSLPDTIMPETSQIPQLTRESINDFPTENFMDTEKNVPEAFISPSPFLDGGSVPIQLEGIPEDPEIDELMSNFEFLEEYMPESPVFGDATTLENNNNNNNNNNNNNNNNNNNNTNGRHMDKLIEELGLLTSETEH
Binder,binding result (MBP:AtHsfA1a [1]),binding result (MBP:PsCRN108 [2]),binding result (GST:PsCRN108),binding result (MBP:PsCRN108 [3]),binding result (MBP:AtHsfA1a [4])
B1,binds,binds,binds,,
B2,,,,binds,binds
